Data from publication PMC9107065.

Target: 30-601-30 nucleosome with Cy3-labeled H2B(K120C) (Xenopus laevis)
Experiment: other fluorescence titration

- other: 40%
Substance: Saccharomyces cerevisiae Chd1[Y137A] (from UniProt P32657 118-1274) (enzyme)
